Source: IntAct's records for PubMed 25910212

B1: U4/U6 small nuclear ribonucleoprotein Prp31 (Homo sapiens), Q8WWY3 (parent)
chain: MSLADELLADLEEAAEEEEGGSYGEEEEEPAIEDVQEETQLDLSGDSVKTIAKLWDSKMFAEIMMKIEEYISKQAKASEVMGPVEAAPEYRVIVDANNLTVEIENELNIIHKFIRDKYSKRFPELESLVPNALDYIRTVKELGNSLDKCKNNENLQQILTNATIMVVSVTASTTQGQQLSEEELERLEEACDMALELNASKHRIYEYVESRMSFIAPNLSIIIGASTAAKIMGVAGGLTNLSKMPACNIMLLGAQRKTLSGFSSTSVLPHTGYIYHSDIVQSLPPDLRRKAARLVAAKCTLAARVDSFHESTEGKVGYELKDEIERKFDKWQEPPPVKQVKPLPAPLDGQRKKRGGRRYRKMKERLGLTEIRKQANRMSFGEIEEDAYQEDLGFSLGHLGKSGSGRVRQTQVNEATKARISKTLQRTLQKQSVVYGGKSTIRDRSSGTASSVAFTPLQGLEIVNPQAAEKKVAEANQKYFSSMAEFLKVKGEKSGLMST
partner: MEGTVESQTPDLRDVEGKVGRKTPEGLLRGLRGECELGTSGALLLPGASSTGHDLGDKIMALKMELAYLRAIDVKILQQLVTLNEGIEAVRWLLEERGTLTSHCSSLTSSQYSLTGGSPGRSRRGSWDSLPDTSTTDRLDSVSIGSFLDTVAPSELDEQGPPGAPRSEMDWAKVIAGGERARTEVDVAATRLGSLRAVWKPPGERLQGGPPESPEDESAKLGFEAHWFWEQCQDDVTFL
B2: Vitamin D3 receptor (Homo sapiens), P11473 (parent)
chain: MEAMAASTSLPDPGDFDRNVPRICGVCGDRATGFHFNAMTCEGCKGFFRRSMKRKALFTCPFNGDCRITKDNRRHCQACRLKRCVDIGMMKEFILTDEEVQRKREMILKRKEEEALKDSLRPKLSEEQQRIIAILLDAHHKTYDPTYSDFCQFRPPVRVNDGGGSHPSRPNSRHTPSFSGDSSSSCSDHCITSSDMMDSSSFSNLDLSEEDSDDPSVTLELSQLSMLPHLADLVSYSIQKVIGFAKMIPGFRDLTSEDQIVLLKSSAIEVIMLRSNESFTMDDMSWTCGNQDYKYRVSDVTKAGHSLELIEPLIKFQVGLKKLNLHEEEHVLLMAICIVSPDRPGVQDAALIEAIQDRLSNTLQTYIRCRHPPPGSHLLYAKMIQKLADLRSLNEEHSKQYRCLSFQPECSMKLTPLVLEVFGNEIS
B3: Proton-coupled zinc antiporter SLC30A8 (Homo sapiens), Q8IWU4 (parent)
chain: MEFLERTYLVNDKAAKMYAFTLESVELQQKPVNKDQCPRERPEELESGGMYHCHSGSKPTEKGANEYAYAKWKLCSASAICFIFMIAEVVGGHIAGSLAVVTDAAHLLIDLTSFLLSLFSLWLSSKPPSKRLTFGWHRAEILGALLSILCIWVVTGVLVYLACERLLYPDYQIQATVMIIVSSCAVAANIVLTVVLHQRCLGHNHKEVQANASVRAAFVHALGDLFQSISVLISALIIYFKPEYKIADPICTFIFSILVLASTITILKDFSILLMEGVPKSLNYSGVKELILAVDGVLSVHSLHIWSLTMNQVILSAHVATAASRDSQVVRREIAKALSKSFTMHSLTIQMESPVDQDPDCLFCEDPCD
partner: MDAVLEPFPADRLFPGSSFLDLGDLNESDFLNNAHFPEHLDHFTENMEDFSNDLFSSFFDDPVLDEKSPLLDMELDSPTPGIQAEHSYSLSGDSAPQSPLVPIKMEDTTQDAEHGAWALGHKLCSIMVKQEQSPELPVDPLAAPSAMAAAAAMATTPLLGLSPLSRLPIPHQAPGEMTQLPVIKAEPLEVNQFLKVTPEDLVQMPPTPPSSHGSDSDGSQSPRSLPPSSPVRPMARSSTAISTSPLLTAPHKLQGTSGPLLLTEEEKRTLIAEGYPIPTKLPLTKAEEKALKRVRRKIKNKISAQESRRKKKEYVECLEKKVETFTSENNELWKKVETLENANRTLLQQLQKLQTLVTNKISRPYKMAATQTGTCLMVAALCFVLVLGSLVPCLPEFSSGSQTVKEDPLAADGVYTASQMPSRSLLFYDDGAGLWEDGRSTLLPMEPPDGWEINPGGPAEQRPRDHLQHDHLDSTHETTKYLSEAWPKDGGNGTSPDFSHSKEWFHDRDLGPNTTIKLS
B4: EF-hand domain-containing protein 1 (Homo sapiens), Q5JVL4 (parent)
chain: MVSNPVHGLPFLPGTSFKDSTKTAFHRSQTLSYRNGYAIVRRPTVGIGGDRLQFNQLSQAELDELASKAPVLTYGQPKQAPPADFIPAHVAFDKKVLKFDAYFQEDVPMSTEEQYRIRQVNIYYYLEDDSMSVIEPVVENSGILQGKLIKRQRLAKNDRGDHYHWKDLNRGINITIYGKTFRVVDCDQFTQVFLESQGIELNPPEKMALDPYTELRKQPLRKYVTPSDFDQLKQFLTFDKQVLRFYAIWDDTDSMYGECRTYIIHYYLMDDTVEIREVHERNDGRDPFPLLMNRQRVPKVLVENAKNFPQCVLEISDQEVLEWYTAKDFIVGKSLTILGRTFFIYDCDPFTRRYYKEKFGITDLPRIDVSKREPPPVKQELPPYNGFGLVEDSAQNCFALIPKAPKKDVIKMLVNDNKVLRYLAVLESPIPEDKDRRFVFSYFLATDMISIFEPPVRNSGIIGGKYLGRTKVVKPYSTVDNPVYYGPSDFFIGAVIEVFGHRFIILDTDEYVLKYMESNAAQYSPEALASIQNHVRKREAPAPEAESKQTEKDPGVQELEALIDTIQKQLKDHSCKDNIREAFQIYDKEASGYVDRDMFFKICESLNVPVDDSLVKELIRMCSHGEGKINYYNFVRAFSN
partner: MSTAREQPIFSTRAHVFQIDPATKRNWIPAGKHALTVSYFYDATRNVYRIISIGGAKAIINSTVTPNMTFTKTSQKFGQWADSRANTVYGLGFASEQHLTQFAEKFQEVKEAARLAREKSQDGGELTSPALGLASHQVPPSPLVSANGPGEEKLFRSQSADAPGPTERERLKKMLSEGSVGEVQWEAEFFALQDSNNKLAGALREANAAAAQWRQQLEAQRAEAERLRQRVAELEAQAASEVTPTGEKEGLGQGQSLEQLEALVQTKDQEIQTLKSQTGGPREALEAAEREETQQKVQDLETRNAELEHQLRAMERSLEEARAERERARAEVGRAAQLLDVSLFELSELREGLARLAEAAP

Variants of: B1
Conditions: with lura1_human LURAP1, Q96LR2

effect of a mutation on the interaction	Variant
with no effect	L107V

Variants of: B2
Conditions: with meox2_human MEOX2, P50222
meox2_human MEOX2, P50222, sequence (P50222 whole entry): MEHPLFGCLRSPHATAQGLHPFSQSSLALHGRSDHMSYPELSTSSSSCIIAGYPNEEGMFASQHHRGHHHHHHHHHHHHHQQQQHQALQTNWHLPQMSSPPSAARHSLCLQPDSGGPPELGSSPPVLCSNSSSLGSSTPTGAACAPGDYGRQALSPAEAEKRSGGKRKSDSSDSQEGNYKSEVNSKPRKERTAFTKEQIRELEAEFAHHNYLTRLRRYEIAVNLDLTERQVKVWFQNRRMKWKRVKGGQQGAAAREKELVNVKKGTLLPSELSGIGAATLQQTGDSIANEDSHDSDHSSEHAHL

effect of a mutation on the interaction	Variant
disrupting interaction strength	E329K
disrupting interaction strength	C190W
with no effect	G33D
with no effect	I268T

Variants of: B3
Conditions: with cr3l1_human CREB3L1, Q96BA8

effect of a mutation on the interaction	Variant
with no effect	R325Q
disrupting interaction strength	R325W

Variants of: B4
Conditions: with home3_human HOMER3, Q9NSC5

effect of a mutation on the interaction	Variant
disrupting interaction strength	A394S
disrupting interaction strength	R221H
with no effect	M448T
